From US20240352128A1

Columns and labels:
CD16a (human) = CD16a (human) (UniProt P08637); assay: FACS
CD16b (human) = CD16b (human) (UniProt O75015); assay: FACS
Chain of CD16b (human) (O75015 17-200): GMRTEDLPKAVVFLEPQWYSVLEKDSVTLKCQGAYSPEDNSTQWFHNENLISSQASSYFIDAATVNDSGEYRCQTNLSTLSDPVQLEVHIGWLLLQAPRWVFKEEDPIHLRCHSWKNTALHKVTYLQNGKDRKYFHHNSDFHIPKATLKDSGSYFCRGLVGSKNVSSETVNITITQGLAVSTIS

Chain of CD16a (human) (P08637 17-254): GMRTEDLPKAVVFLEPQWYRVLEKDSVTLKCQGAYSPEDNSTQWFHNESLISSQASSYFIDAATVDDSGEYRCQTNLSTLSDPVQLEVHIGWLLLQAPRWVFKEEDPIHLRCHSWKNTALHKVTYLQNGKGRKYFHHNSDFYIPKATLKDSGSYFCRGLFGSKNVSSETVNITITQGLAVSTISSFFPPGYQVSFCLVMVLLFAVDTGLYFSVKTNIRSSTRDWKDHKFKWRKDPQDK

Row | Substance | EC50 (CD16a (human)) [mM] | EC50 (CD16b (human)) [µM]
1 | mouse IgG | 1.95 | 1440
2 | CD16A-mIgG1 | – | 401
